Substrate in series [1]: O=C(O)CC(=O)C(=O)O
Briefly: purified protein. The format is biochemical, [Mannheimia] succiniciproducens. As to conditions: pH 7.0, 0.1 M Tris-HCl, NADH co-substrate, room temperature.

Substrate in series [2]: O=C(O)CC(=O)C(=O)O
Briefly: purified protein. The format is biochemical, Corynebacterium glutamicum. As to conditions: pH 7.0, 0.1 M Tris-HCl, NADH co-substrate, room temperature.

Substitutions are numbered along the chain they refer to. In names and notes the source's numbering stands.

B1: MsMDH ([Mannheimia] succiniciproducens MBEL55E) (protein)
chain: MKVAVLGAAGGIGQALALLLKLQLPAGSSLSLYDVAPVTPGVAKDLSHIPTDVVVEGFAGTDPSEALKGADIVLISAGVARKPGMTRADLFGVNAGIIRSLTEKVAEQCPKACVGIITNPVNAMVAIAAEVLKKAGVYDKRKLFGITTLDILRAETFIAELKGLDPTRVTIPVIGGHSGVTILPLLSQVQNVEWSSEEEIIALTHRIQNAGTEVVEAKAGGGSATLSMAQAAARFALALVKASQGAKVVECAYVEGDGKYARFFAQPVRLGTEGVEEYLTLGKLSAFEEKALNAMLETLQGDIKSGEDFING
notes: full length, C-terminal 6xHis (pET30a), expressed in E. coli BL21(DE3), Ni-NTA, ion exchange and size exclusion
Take B1: in “purified protein [1]”, the Km was 18.2 ± 10.5 µM, the turnover number (kcat) came to 376 ± 119 s⁻¹ and the specificity constant (kcat/Km) stood at 2.07e+07 ± 4.5e+06 M⁻¹ s⁻¹.

B2: MsMDH ([Mannheimia] succiniciproducens MBEL55E; G11Q) (protein)
chain: B1 chain with G11Q
notes: as for B1
In the case of B2, in “purified protein [1]”, the Km came out at 103.5 ± 25.9 µM, the kcat was found to be 927 ± 152 s⁻¹ and the kcat/Km was determined as 9e+06 ± 400000 M⁻¹ s⁻¹.

B3: CgMDH (Corynebacterium glutamicum ATCC 13032) (protein)
chain: MNSPQNVSTKKVTVTGAAGQISYSLLWRIANGEVFGTDTPVELKLLEIPQALGGAEGVAMELLDSAFPLLRNITITADANEAFDGANAAFLVGAKPRGKGEERADLLANNGKIFGPQGKAINDNAADDIRVLVVGNPANTNALIASAAAPDVPASRFNAMMRLDHNRAISQLATKLGRGSAEFNNIVVWGNHSATQFPDITYATVGGEKVTDLVDHDWYVEEFIPRVANRGAEIIEVRGKSSAASAASSAIDHMRDWVQGTEAWSSAAIPSTGAYGIPEGIFVGLPTVSRNGEWEIVEGLEISDFQRARIDANAQELQAEREAVRDLL
notes: as for B1
For B3, in the series “purified protein [2]”, the Michaelis-Menten constant (Km) amounted to 46.1 ± 7.3 µM, the turnover number (kcat) worked out at 920 ± 77 s⁻¹ and the kcat/Km is 1.99e+07 ± 300000 M⁻¹ s⁻¹.

Source of the values: paper PMC7181634, “Enhanced succinic acid production by Mannheimia employing optimal malate dehydrogenase” (Nature Communications, 2020).
